Reference: US20210061891A1 (DUKE UNIVERSITY, published 2021)
Ends that are not written are not given here.

How the values were obtained:
residue mutated to A: P = molecular target: T1, residue mutated to A: P (also: biotinylated, attachment site not given here); assay: ELISA on streptavidin-immobilized biotinylated 15mer peptides; area under the signal vs antibody concentration curve;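 further: antibody binding to each alanine-substituted peptide expressed relative to binding to the natural peptide, using curve area determined separately for every peptide-antibody pair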
T1 construct: position from the legend (CFH1114-1121)
T1 peptide: GPPPAIDNGDITSFP

residue mutated to A: G = molecular target: T2, residue mutated to A: G (also: biotinylated, attachment site not given here); assay: as above
T2 construct: position from the legend (CFH1114-1121)
T2 peptide: GPPPPIDNADITSFP

residue mutated to A: D [1] = molecular target: T3, residue mutated to A: D (6th column) (also: biotinylated, attachment site not given here); assay: as above
T3 construct: position from the legend (CFH1114-1121)
T3 peptide: GPPPPIDNGAITSFP

residue mutated to A: D [2] = molecular target: T4, residue mutated to A: D (3rd column) (also: biotinylated, attachment site not given here); assay: as above
T4 construct: position from the legend (CFH1114-1121)
T4 peptide: GPPPPIANGDITSFP

[3] = molecular target: T5, reduced Complement Factor H (CFH treated with TCEP) (human, UniProt P08603 19-1231, disulfide bonds reduced with TCEP); assay: immunoblot (Surf-Blot), CFH treated with TCEP (reduced) before electrophoresis; anti-human IgG-HRP
T5 construct: also called reduced CFH; conformationally distinct form of CFH
T5 sequence (P08603 19-1231 limits assumed): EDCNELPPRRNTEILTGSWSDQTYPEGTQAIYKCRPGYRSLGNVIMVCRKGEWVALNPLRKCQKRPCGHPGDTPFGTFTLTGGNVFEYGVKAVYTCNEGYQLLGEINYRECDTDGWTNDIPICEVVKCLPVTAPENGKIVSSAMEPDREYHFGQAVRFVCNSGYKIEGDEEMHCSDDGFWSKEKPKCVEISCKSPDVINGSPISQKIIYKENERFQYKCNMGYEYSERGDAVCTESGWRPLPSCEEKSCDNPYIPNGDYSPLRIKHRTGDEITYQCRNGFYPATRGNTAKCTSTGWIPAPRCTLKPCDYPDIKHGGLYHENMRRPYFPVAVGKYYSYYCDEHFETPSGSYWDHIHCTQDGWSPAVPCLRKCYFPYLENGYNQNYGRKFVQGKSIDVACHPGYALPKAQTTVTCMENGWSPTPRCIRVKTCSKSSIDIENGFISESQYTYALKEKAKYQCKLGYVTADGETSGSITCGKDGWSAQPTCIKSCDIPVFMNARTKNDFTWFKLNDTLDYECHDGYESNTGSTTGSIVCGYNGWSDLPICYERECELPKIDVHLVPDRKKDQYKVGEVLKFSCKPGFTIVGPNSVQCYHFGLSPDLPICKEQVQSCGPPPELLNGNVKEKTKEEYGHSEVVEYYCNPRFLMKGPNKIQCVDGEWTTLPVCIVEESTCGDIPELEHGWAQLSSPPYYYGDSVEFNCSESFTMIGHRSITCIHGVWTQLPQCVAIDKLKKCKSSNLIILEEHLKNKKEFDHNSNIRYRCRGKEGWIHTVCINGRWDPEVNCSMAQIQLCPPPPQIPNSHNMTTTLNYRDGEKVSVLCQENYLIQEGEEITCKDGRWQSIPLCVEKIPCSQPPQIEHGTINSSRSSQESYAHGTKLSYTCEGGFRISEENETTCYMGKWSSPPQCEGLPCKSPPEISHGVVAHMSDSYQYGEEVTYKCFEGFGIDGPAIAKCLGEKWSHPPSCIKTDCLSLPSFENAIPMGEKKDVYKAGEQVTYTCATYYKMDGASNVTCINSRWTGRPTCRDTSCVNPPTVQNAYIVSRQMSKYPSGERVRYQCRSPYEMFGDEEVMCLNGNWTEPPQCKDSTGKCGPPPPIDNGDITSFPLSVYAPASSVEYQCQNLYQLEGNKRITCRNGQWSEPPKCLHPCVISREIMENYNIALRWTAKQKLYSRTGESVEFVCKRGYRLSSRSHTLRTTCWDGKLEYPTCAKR

[4] = molecular target: T6, native Complement Factor H (CFH) (human, UniProt P08603 19-1231); assay: immunoblot (Surf-Blot), CFH treated with Tris-HCl (oxidized) before electrophoresis; anti-human IgG-HRP
T6 construct: Native, non-reduced CFH; also called native CFH; full-length native CFH
T6 sequence (P08603 19-1231 limits assumed): as above

residue mutated to A: T = molecular target: T7, residue mutated to A: T (also: biotinylated, attachment site not given here); assay: ELISA on streptavidin-immobilized biotinylated 15mer peptides; area under the signal vs antibody concentration curve;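 further: antibody binding to each alanine-substituted peptide expressed relative to binding to the natural peptide, using curve area determined separately for every peptide-antibody pair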
T7 construct: position from the legend (CFH1114-1121)
T7 peptide: GPPPPIDNGDIASFP

residue mutated to A: I = molecular target: T8, residue mutated to A: I (also: biotinylated, attachment site not given here); assay: as above
T8 construct: position from the legend (CFH1114-1121)
T8 peptide: GPPPPADNGDITSFP

residue mutated to A: N = molecular target: T9, residue mutated to A: N (also: biotinylated, attachment site not given here); assay: as above
T9 construct: position from the legend (CFH1114-1121)
T9 peptide: GPPPPIDAGDITSFP

Binder	percent of binding to the natural peptide (AUC) (residue mutated to A: P)	percent of binding to the natural peptide (AUC) (residue mutated to A: G)	percent of binding to the natural peptide (AUC) (residue mutated to A: D [1])	percent of binding to the natural peptide (AUC) (residue mutated to A: D [2])	binding result [3]	binding result [4]	percent of binding to the natural peptide (AUC) (residue mutated to A: T)	percent of binding to the natural peptide (AUC) (residue mutated to A: I)	percent of binding to the natural peptide (AUC) (residue mutated to A: N)
Ab7955 (antibody, V domains shown, Recombinant human mAb) VH: LVESGGGVVRPGRSLRLSCVASGFTFNAYGMHWVRQGPGKGLEWLAVISYEGKTVYYADSVKDRFTISRDNSRNTVSLHLNNLRGEDTAVYYCAKGSASAAVLQHWGQGTLVSVTS VL: MTQSPGSLAVSLGSRATINCKSSRSLLYRSNNKNYLAWYQQKPGQSPRLLIYWASSRESGVPDRFSGGGSGTSFTLTISSLQAEDVAVYYCQQYFNPPWTFGQGTKVEIK	52%	104%	103%	81%					
Ab7961/293i (antibody, V domains shown, Recombinant human mAb) VH: LVESGGGVVQPGKSLRLSCVASGFTFSSYGMHWVRQAPGKGLEWVAVMSFDGKTKYYADSVKGRFTISRDNPKNTLYLQMNSLRSEDTAVYYCAKGGAAAAVFDSWGQGILLTVSS VL: MTQSPNSLAVSLGGRATINCKTSQSILYRSNNKNYLAWYQHKSGQPPKLLIYWASTRESGVPDRFSGSGSRTDFTLTISGLQAEDVAVYYCQQYYNPPWTFGQGTKVEIK	56%	104%	105%	100%	binds	binds	16%	52%	
Ab7979 (antibody, V domains shown, Recombinant human mAb) VH: LVESGGGVVQPGKSLRLSCVASGFTFSTYGMHWVRQAPGKGLEWVAVMSFDGKTKYYADSVKGRFTISRDNPKNTLYLQMNSLRSEDTAVYYCAKGGAAAAVFDSWGQGILLTVSS VL: MTQSPNSLAVSLGGRATINCKTSQSILYRSNNKNYLAWYQHKPGQPPKLLIYWASTRESRVPDRFSGSGSRTDFTLTISGLQAEDVAVYYCQQYYNPPWTFGQGTKVEIK	64%	102%	98%	96%	binds	binds		61%	29%
Ab7960/293i (antibody, V domains shown, Recombinant human mAb) VH: LVESGGGVVQPGKSLRLSCVASGFSFSTYGMHWVRQAPGKGLEWVAVMSFDGKTKYYADSVKGRFTISRDNPKNTLYLQMNSLRSEDTAVYYCAKGGAAAAVFDSWGPGILLTVSS VL: MTQSPNSLAVSLGGRATINCKASQSILYRSNNKNYLAWYQHKAGQPPKLLIYWASTRESGVPERFSGSGSRTDFTLTINGLQAEDVAVYYCQQYYNPPWTFGQGTKVEIK	53%	99%	99%	95%	binds	binds		43%	
CFH mAb7968 (antibody, V domains shown, also called CBAb1) VH: LVESGGGVVQPGRSLRLSCAASGFTFSRYGMHWVRQAPGKGLEWVAVMSYDGSTKYYADSVKGRFAISRDNPKNTLFLQMNSLRPDDTAVYYCAKGGAAAAVMDVWGKGTTVTVSS VL: MTQSPDSLTVSLGERATISCKSSQRLLYSSNNKNYLAWYQQKPGQPPKLLMYWASTRESGVPDRFSGSGSGTDFSLTISSLQAEDVAVYYCQQYYNPPWTFGQGTKVEVK	73%	100%	101%	102%			54%	73%	
Ab7957/293i (antibody, V domains shown, Recombinant human mAb) VH: LVESGGGVVPPGKSLRLSCAASGFTFSLYGIHWVRQAPGKGLEWVAVISYDGNTKYYTDSVKGRFTISRDNAKNTIYLQMNSLRLDDTAVYYCAKGAANSATFDFWGRGTMVTVSS VL: MTQSPDSLTLSLGERATINCRSSRTVLYRSNNKNYLAWYQHKPGQPPKLLMSWASTRETGVPDRFSGSGSGTHFTLTITSLQPEDVAVYYCQQYYSPPWTFGQGTKVEIR	61%	99%	102%	100%	binds	binds	48%	61%	30%
Ab7964 (antibody, V domains shown, Recombinant human mAb) VH: LVESGGGVVQPGRSLRLSCAASGVTFSRYGMHWVRQAPGKGLEWVAVISYDEKTKYYADSVKGRFTISRDNSKNTLFLHMNRLRYEDTAVYYCAKGASSGAYFDYWGQGTLVTVSS VL: not shown	74%	100%	102%	100%	binds	binds	66%	76%	
